Among the data in publication PMC4193212 are β-galactosidase activity (two-hybrid reporter) (nmol ONP/min/mg protein) values, retold here.

What all share (test): two-hybrid; split-ubiquitin yeast two-hybrid (DUALhunter), S. cerevisiae NMY51; bait as Cub fusion, prey as NubG fusion; growth on SD-LWHA with 45 and 55 mM 3-AT, 28°C, and β-galactosidase activity (X-gal, ONPG)
Assay [1] deals with Opuntia streptacantha SK3 dehydrin OpsDHN1, full-length version, split-ubiquitin fusion (Opuntia streptacantha).
For assay [2], the target named is OpsDHN1-S(ΔH)K3, version without the histidine-rich motif (residues 1-111/138-248), split-ubiquitin fusion (Opuntia streptacantha).
Assay [3] deals with OpsDHN1-SK2, C-terminal truncated version (residues 1-199), split-ubiquitin fusion (Opuntia streptacantha).
Assay [4] deals with SV40 LargeT antigen (Cub) (SV40).

In assay [1], “OpsDHN1-SK2, C-terminal truncated version (residues 1-199), split-ubiquitin fusion (domain or fragment)” returned a β-galactosidase activity (two-hybrid reporter) (nmol ONP/min/mg protein) of 146. In the case of “Opuntia streptacantha SK3 dehydrin OpsDHN1, full-length version, split-ubiquitin fusion (natural protein)”, the β-galactosidase activity (two-hybrid reporter) (nmol ONP/min/mg protein) was 70.5 in assay [2], 142 in assay [3] and 462 in assay [1].

As to “tumor suppressor Δp53 (NubG) (domain or fragment)”, the β-galactosidase activity (two-hybrid reporter) (nmol ONP/min/mg protein) in assay [4] amounted to 656.
